Consider 35 molecules from PMC10786891, “Massively parallel profiling of RNA-targeting CRISPR-Cas13d”.

Residue numbers refer to the chain shown, from its start. Names and notes keep the numbering of the source.

To fix the notation:
B1: target 1 insA 3' of 13,insU 3' of 13 (mixed)
RNA 1: CACCCGUGCAAAAAUGCAGGGGUCUAAAACUGAGCGGAUAACCUCUCUAUGG
RNA 2: GGGAAUGGAUCCACAUCUACGAAUUCGUACCAUAGAGAGAUGUUAUCCGCUCACCGAGAUCGGAAGAGCACACGU
B2: target 1 complement block 1-14 (mixed)
RNA 1: B1 RNA 1
RNA 2: GGGAAUGGAUCCACAUCUACGAAUUCGUACCAUAGAGUCCAAUAGGCGAGUCCGAGAUCGGAAGAGCACACGU
B3: target 1 U3A,C7G (mixed)
RNA 1: B1 RNA 1
RNA 2: GGGAAUGGAUCCACAUCUACGAAUUCGUACCAUAGAGAGGUUAUGCGCACACCGAGAUCGGAAGAGCACACGU
B4: target 1 insG 3' of 20,insU 3' of 7 (mixed)
RNA 1: B1 RNA 1
RNA 2: GGGAAUGGAUCCACAUCUACGAAUUCGUACCAGUAGAGAGGUUAUCUCGCUCACCGAGAUCGGAAGAGCACACGU
B5: target 1 insU 3' of 13,insG 3' of 7 (mixed)
RNA 1: B1 RNA 1
RNA 2: B1 RNA 2 with A40U, U41G, G42U, U44A, A45U, U46C, C47G
B6: target 2 MT 5'PFS AUG 3'PFS CCU (mixed)
RNA 1: CACCCGUGCAAAAUUGCAGGGGUCUAAAACCUUCUCCAAAUUGUUUCAUCCU
RNA 2: GGGAAUGGAUCCACAUCUACGAAUUCAUGAGGAUGAAACAAUUUGGAGAAGCCUAGAUCGGAAGAGCACACGU
B7: target 2 MT 5'PFS UAU 3'PFS AUG (mixed)
RNA 1: B6 RNA 1
RNA 2: B6 RNA 2 with A27U, U28A, G29U, C52A, C53U, U54G
B8: target 2 MT 5'PFS GUG 3'PFS CGU (mixed)
RNA 1: B6 RNA 1
RNA 2: B6 RNA 2 with A27G, C53G
B9: target 2 MT 5'PFS UAG 3'PFS AUU (mixed)
RNA 1: B6 RNA 1
RNA 2: B6 RNA 2 with A27U, U28A, C52A, C53U
B10: target 2 MT 5'PFS GCU 3'PFS CUG (mixed)
RNA 1: B6 RNA 1
RNA 2: B6 RNA 2 with A27G, U28C, G29U, C53U, U54G
B11: target 2 MT 5'PFS GGG 3'PFS UAG (mixed)
RNA 1: B6 RNA 1
RNA 2: B6 RNA 2 with A27G, U28G, C52U, C53A, U54G
B12: target 2 MT 5'PFS UAU 3'PFS AUU (mixed)
RNA 1: B6 RNA 1
RNA 2: B6 RNA 2 with A27U, U28A, G29U, C52A, C53U
B13: target 2 MT 5'PFS UGC 3'PFS CGA (mixed)
RNA 1: B6 RNA 1
RNA 2: B6 RNA 2 with A27U, U28G, G29C, C53G, U54A
B14: target 2 MT 5'PFS AAU 3'PFS AAA (mixed)
RNA 1: B6 RNA 1
RNA 2: B6 RNA 2 with U28A, G29U, C52A, C53A, U54A
B15: target 2 MT 5'PFS UAG 3'PFS AUG (mixed)
RNA 1: B6 RNA 1
RNA 2: B6 RNA 2 with A27U, U28A, C52A, C53U, U54G
B16: target 2 MT 5'PFS UGA 3'PFS CAC (mixed)
RNA 1: B6 RNA 1
RNA 2: B6 RNA 2 with A27U, U28G, G29A, C53A, U54C
B17: target 2 MT 5'PFS UGC 3'PFS CGG (mixed)
RNA 1: B6 RNA 1
RNA 2: B6 RNA 2 with A27U, U28G, G29C, C53G, U54G
B18: target 2 MT 5'PFS AAU 3'PFS AAC (mixed)
RNA 1: B6 RNA 1
RNA 2: B6 RNA 2 with U28A, G29U, C52A, C53A, U54C
B19: target 2 MT 5'PFS GUG 3'PFS CGG (mixed)
RNA 1: B6 RNA 1
RNA 2: B6 RNA 2 with A27G, C53G, U54G
B20: target 2 MT 5'PFS AAU 3'PFS CCA (mixed)
RNA 1: B6 RNA 1
RNA 2: B6 RNA 2 with U28A, G29U, U54A
B21: target 2 MT 5'PFS UGU 3'PFS UUU (mixed)
RNA 1: B6 RNA 1
RNA 2: B6 RNA 2 with A27U, U28G, G29U, C52U, C53U
B22: target 2 MT 5'PFS UAG 3'PFS AUC (mixed)
RNA 1: B6 RNA 1
RNA 2: B6 RNA 2 with A27U, U28A, C52A, C53U, U54C
B23: target 2 MT 5'PFS CAG 3'PFS CCA (mixed)
RNA 1: B6 RNA 1
RNA 2: B6 RNA 2 with A27C, U28A, U54A
B24: target 2 MT 5'PFS AUG 3'PFS CCA (mixed)
RNA 1: B6 RNA 1
RNA 2: B6 RNA 2 with U54A
B25: target 2 MT 5'PFS CAC 3'PFS AGU (mixed)
RNA 1: B6 RNA 1
RNA 2: B6 RNA 2 with A27C, U28A, G29C, C52A, C53G
B26: target 2 MT 5'PFS GGG 3'PFS UAC (mixed)
RNA 1: B6 RNA 1
RNA 2: B6 RNA 2 with A27G, U28G, C52U, C53A, U54C
B27: target 2 MT 5'PFS UAU 3'PFS AUA (mixed)
RNA 1: B6 RNA 1
RNA 2: B6 RNA 2 with A27U, U28A, G29U, C52A, C53U, U54A
B28: target 2 MT 5'PFS UAG 3'PFS AUA (mixed)
RNA 1: B6 RNA 1
RNA 2: B6 RNA 2 with A27U, U28A, C52A, C53U, U54A
B29: target 2 MT 5'PFS GAA 3'PFS CGG (mixed)
RNA 1: B6 RNA 1
RNA 2: B6 RNA 2 with A27G, U28A, G29A, C53G, U54G
B30: target 2 MT 5'PFS AAU 3'PFS AAG (mixed)
RNA 1: B6 RNA 1
RNA 2: B6 RNA 2 with U28A, G29U, C52A, C53A, U54G
B31: target 2 MT 5'PFS UGC 3'PFS CGC (mixed)
RNA 1: B6 RNA 1
RNA 2: B6 RNA 2 with A27U, U28G, G29C, C53G, U54C
B32: target 2 MT 5'PFS GGG 3'PFS UAU (mixed)
RNA 1: B6 RNA 1
RNA 2: B6 RNA 2 with A27G, U28G, C52U, C53A
B33: target 2 MT 5'PFS GUG 3'PFS CGC (mixed)
RNA 1: B6 RNA 1
RNA 2: B6 RNA 2 with A27G, C53G, U54C
B34: target 2 MT 5'PFS GUG 3'PFS CGA (mixed)
RNA 1: B6 RNA 1
RNA 2: B6 RNA 2 with A27G, C53G, U54A
B35: target 2 MT 5'PFS AUG 3'PFS CCG (mixed)
RNA 1: B6 RNA 1
RNA 2: B6 RNA 2 with U54G

This series deals with T1, EsCas13d, nuclease-dead (Eubacterium siraeum, UniProt B0MS50, R295A;H300A;R849A;H854A).
T1 sequence: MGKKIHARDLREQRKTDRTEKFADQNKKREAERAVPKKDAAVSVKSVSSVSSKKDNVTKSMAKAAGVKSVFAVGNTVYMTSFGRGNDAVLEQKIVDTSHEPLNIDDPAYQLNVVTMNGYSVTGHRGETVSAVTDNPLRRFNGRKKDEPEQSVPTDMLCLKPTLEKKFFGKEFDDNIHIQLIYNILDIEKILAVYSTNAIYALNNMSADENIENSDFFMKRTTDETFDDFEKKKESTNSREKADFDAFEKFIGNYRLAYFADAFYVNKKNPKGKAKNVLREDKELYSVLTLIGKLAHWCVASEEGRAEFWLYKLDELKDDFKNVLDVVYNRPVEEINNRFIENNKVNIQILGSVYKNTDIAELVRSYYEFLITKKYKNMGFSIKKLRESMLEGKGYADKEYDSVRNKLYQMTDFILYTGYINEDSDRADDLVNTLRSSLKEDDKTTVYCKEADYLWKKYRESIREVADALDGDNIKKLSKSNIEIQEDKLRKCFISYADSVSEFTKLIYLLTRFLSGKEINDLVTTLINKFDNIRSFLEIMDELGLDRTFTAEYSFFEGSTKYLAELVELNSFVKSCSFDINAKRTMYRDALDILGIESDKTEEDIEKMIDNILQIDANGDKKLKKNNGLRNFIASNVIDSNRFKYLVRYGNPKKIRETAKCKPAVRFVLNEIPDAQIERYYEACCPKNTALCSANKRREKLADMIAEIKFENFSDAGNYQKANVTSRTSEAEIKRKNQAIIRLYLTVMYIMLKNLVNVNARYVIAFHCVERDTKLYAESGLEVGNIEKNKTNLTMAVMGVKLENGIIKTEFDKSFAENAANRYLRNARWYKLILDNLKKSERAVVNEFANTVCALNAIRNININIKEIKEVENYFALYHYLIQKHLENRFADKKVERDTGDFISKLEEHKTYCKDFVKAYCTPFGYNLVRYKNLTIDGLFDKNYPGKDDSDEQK
Description: crRNA (strand 1, pre-loaded); Mg2+; 40 mM Tris-HCl pH 7.5, 150 mM NaCl, 6 mM MgCl2, 1 mM DTT, 0.1% Tween-20, 0.2 mg/ml BSA; 25 C; 10 min per concentration, then washed. The conditions noted are these: tags: His6-TwinStrep-SUMO cleaved; N-terminal SNAP kept (SNAP-Surface 488); label: 3' end held by stalled T7 RNA polymerase.
As a reminder, the Kd is the free concentration of one partner at which half of the binding sites on the other are occupied at equilibrium, for simple one-to-one binding. Higher therefore signals a looser complex. B1 displayed a dissociation constant (Kd) of 14.2 ± 1.3 nM.

B2 came in with a dissociation constant Kd of roughly 100 nM.

For the molecule B3, the affinity, expressed as Kd, was 6.64 ± 0.29 nM.

B4 had a Kd of 90 ± 40 nM.

B5 yielded a Kd of 9.5 ± 0.5 nM.

With B6, the Kd was roughly 70 nM.

In turn, B7 showed an equilibrium dissociation constant (Kd) of 45 ± 9 nM.

Consider B8, for which binding was characterised by a dissociation constant (Kd) of 14.7 ± 1.3 nM. Compared with the last molecule, the Kd is about 3.1-fold lower.

For B9, the dissociation constant Kd came to 2.93 ± 0.34 nM. Compared with the last molecule, the Kd is about 5-fold lower.

Molecule B10 registered a Kd of 30 ± 11 nM.

Turning to B11, the affinity, expressed as Kd, was 8 ± 0.6 nM.

In the case of B12, the dissociation constant Kd came to 24.8 ± 2.3 nM.

Consider B13, for which the Kd is roughly 48 nM.

Take B14: the equilibrium dissociation constant (Kd) turned out to be 3.2 ± 0.5 nM.

B15 came in with a dissociation constant Kd of 3.21 ± 0.28 nM.

The molecule B16 yielded a Kd of 15 ± 4 nM.

B17 returned a dissociation constant (Kd) of 38 ± 6 nM.

As for B18, the Kd was 5.2 ± 0.8 nM.

B19 displayed a dissociation constant (Kd) of 12.5 ± 1 nM.

In the case of B20, the dissociation constant (Kd) amounted to 24 ± 12 nM.

B21: the affinity, expressed as Kd, was 50 ± 13 nM.

Take B22: the Kd is 3.3 ± 0.7 nM.

The molecule B23 gave a Kd of 10.1 ± 1.4 nM.

Molecule B24 yielded a dissociation constant Kd of 23.7 ± 3.5 nM.

B25 returned a Kd of 2.7 ± 0.6 nM.

For B26, the Kd stood at 9.6 ± 0.7 nM.

On to B27, for which the dissociation constant (Kd) was determined as 41 ± 7 nM.

In turn, B28 came in with a dissociation constant (Kd) of 2.63 ± 0.33 nM.

Regarding B29, the dissociation constant (Kd) was 9.6 ± 1.5 nM.

As for B30, the Kd came to 5.5 ± 0.9 nM.

As for B31, binding was characterised by a dissociation constant (Kd) of 66 ± 11 nM.

As for B32, the Kd was 9.6 ± 1 nM.

In the case of B33, the dissociation constant (Kd) worked out at 9.5 ± 0.4 nM.

Take B34: binding was characterised by a dissociation constant (Kd) of 12.8 ± 1.6 nM.

Consider B35, for which the equilibrium dissociation constant (Kd) worked out at 9.5 ± 1.1 nM. The Kd values of the last two molecules are within 1.5-fold of each other.
